We go through six molecules from US20160244511A1 (published 2016).

Experiment [1] deals with T1, LukF, F-component of Panton Valentine leukocidin (LukSF), USA300 TCH1516 strain (Staphylococcus aureus USA300 TCH1516).
T1 chain: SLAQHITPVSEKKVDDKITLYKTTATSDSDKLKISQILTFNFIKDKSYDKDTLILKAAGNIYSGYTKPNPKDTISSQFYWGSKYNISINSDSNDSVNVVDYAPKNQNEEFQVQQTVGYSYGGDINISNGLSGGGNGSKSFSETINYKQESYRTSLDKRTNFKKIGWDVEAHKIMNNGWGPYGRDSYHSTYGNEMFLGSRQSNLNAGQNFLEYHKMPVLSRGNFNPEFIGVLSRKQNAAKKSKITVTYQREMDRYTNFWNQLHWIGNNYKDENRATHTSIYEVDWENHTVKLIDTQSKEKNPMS
In words: MSD solution equilibrium, Fab with biotinylated antigen (or ForteBio). (In general: Biolayer interferometry detects binding as a change in optical thickness at a sensor tip.)

Experiment [2] has as its target T2, LukD, F-component of LukED, USA300 TCH1516 strain (Staphylococcus aureus USA300 TCH1516, UniProt Q2FXB1 27-327).
T2 sequence: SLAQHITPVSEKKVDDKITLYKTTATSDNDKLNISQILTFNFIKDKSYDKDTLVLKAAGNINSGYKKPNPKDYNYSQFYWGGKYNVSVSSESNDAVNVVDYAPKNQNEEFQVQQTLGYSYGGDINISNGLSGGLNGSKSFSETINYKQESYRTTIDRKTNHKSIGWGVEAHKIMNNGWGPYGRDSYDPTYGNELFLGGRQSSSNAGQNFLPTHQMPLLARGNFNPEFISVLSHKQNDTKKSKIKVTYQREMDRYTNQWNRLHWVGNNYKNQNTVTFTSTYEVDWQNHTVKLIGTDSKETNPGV
The experiment is described as above.

Experiment [3] addresses T3, HlgB, F-component of gamma-hemolysin, USA300 TCH1516 strain (Staphylococcus aureus USA300 TCH1516, UniProt P0A075 26-325).
T3 sequence: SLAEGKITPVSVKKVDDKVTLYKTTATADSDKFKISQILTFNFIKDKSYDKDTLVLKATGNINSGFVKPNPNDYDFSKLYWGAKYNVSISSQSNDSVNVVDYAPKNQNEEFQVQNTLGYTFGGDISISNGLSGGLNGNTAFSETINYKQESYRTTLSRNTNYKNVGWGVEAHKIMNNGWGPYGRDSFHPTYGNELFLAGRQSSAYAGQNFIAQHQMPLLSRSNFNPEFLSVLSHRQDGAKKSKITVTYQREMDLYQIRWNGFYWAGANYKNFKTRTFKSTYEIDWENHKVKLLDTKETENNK
The experiment is described as above.

Experiment [4] deals with T1, LukF, F-component of Panton Valentine …. In words: MSD solution equilibrium, Fab with biotinylated antigen.
Experiment [5] addresses T2, LukD, F-component of LukED, USA300 …. The experiment is described as above.
In experiment [6] the target is T3, HlgB, F-component of gamma-hemolysin, …. The description is as above.

B1: AB-28 Fab fragment (Fab, V domains shown)
VH: QVQLQESGPGLVKPSETLSLTCAVSGYSISSGMGWGWIRQPPGKGLEWIGSIDQRGSTYYNPSLKSRVTISVDTSKNQFSLKLSSVTAADTAVYYCARDAGHGVDMDVWGKGTTVTVSS
VL: DIQMTQSPSSVSASVGDRVTITCRASQGISRWLAWYQQKPGKAPKLLIYAASSLQSGVPSRFSGSGSGTDFTLTISSLQPEDFATYYCQQGYVFPLTFGGGTKVEIK
Regarding B1, the Kd (in general, the equilibrium constant for the complex coming apart) in experiment [1] is greater than 0.1 nM; in experiment [2], greater than 1 nM; in experiment [3], less than 0.01 nM.

B2: AB-28-9 Fab (Fab, V domains shown)
VH: EVQLQESGPGLVRPSETLSLTCAVSGYSISSGMGWGWIRQPPGKGLEWIGSIDQRGSTYYNPSLKSRVTISVDTSKNQFSLKLSSVTAADTAVYYCARDAGHAVDMDVWGKGTTVTVSS
VL: DIQMTQSPSSVSASVGDRVTITCRASQGISRWLAWYQQKPGKAPKLLIYAASSLQSGVPSRFSGSGSGTDFTLTISSLQPEDFATYYCQQGYVFPLTFGGGTKVEIK
For the molecule B2, the Kd in experiment [4] was less than 0.055 nM; in experiment [5] it was less than 0.8 nM.

B3: AB-28-7 Fab (Fab, V domains shown)
VH: QVQLQESGPGLVKPSETLSLTCAVSGYSISSGMGWDWIRQPPGKGREWIGSIDQRGSTYYNPSLEGRATISVDTSKNQFSLKLSSVTAADTAVYYCARDAGHGVDMDVWGKGTTVTVSS
VL: DIQMTQSPSSVSASVGDRVTITCRASQGISRWLAWYQQKPGKAPKLLIYAASSLQSGVPSRFSGSGSGTDFTLTISSLQPEDFATYYCQQGYVFPLTFGGGTKVEIK
Regarding B3, the figures for the Kd in experiment [4] and in experiment [5] were less than 0.055 nM and less than 0.8 nM, respectively.

B4: AB-28-6 Fab (Fab, V domains shown)
VH: QVQLQESGPGLVRPSETLSLTCAVSGYSISSGMGWGWIRQPPGKGLEWIGSIDQRGSTYYNPSLKSRVTISVDTSKNQFSLKLSSVTAADTAVYYCARDAGHAVDMDVWGKGTTVTVSS
VL: DIQMTQSPSSVSASVGDRVTITCRASQGISRWLAWYQQKPGKAPKLLIYAASSLQSGVPSRFSGSGSGTDFTLTISSLQPEDFATYYCQQGYVFPLTFGGGTKVEIK
In the case of B4, the Kd in experiment [4] was less than 0.055 nM; in experiment [5] it was less than 0.8 nM.

B5: AB-28-8 Fab (Fab, V domains shown)
VH: QVQLQESGPGLVKPSETLSLTCAVSGYSISSGMGWDWIRQPPGKGLEWIGSIDQRGSTYYNPPLESRVTISVDTSKNQFSLKLSSVTAADTAVYYCARDAGHGVDMDVWGKGTTVTVSS
VL: DIQMTQSPSSVSASVGDRVTITCRASQGISRWLAWYQQKPGKAPKLLIYAASSLQSGVPSRFSGSGSGTDFTLTISSLQPEDFATYYCQQGYVFPLTFGGGTKVEIK
For the molecule B5, the values for the Kd in experiment [4] and in experiment [5] were less than 0.055 nM and less than 0.8 nM, respectively.

B6: AB-28-3 Fab (Fab, V domains shown)
VH: QVQLQESGPGLVKPSETLSLTCAVSGYSISSGMGWGWIRQPPGKGLEWIGSVDQRGSTYYNPSLKSRVTISVDTSKNQFSLKLSSVTAADTAVYYCARDAGHGADMDVWGKGTTVTVSS
VL: DIQMTQSPSSVSASVGDRVTITCRASQGISRWLAWYQQKPGKAPKLLIYAASSLQSGVPSRFSGSGSGTDFTLTISSLQPEDFATYYCQQGYVFPLTFGGGTKVEIK
Molecule B6 gave a Kd in experiment [6] of less than 0.02 nM.
